{"source": "paper PMC1904298", "data": [{"tested_on": "ϕC31 integrase (Streptomyces phage ϕC31?)", "assay": "EMSA", "units": {"K half": "nM"}, "values": [{"substance": "attB C+15G, 72 bp fragment", "K half": 72.7}, {"substance": "attB C-2A:G+2T, 72 bp fragment", "K half": 56.7}, {"substance": "attB C-2G, 72 bp fragment", "K half": 55.7}, {"substance": "attB G+2C, 72 bp fragment", "K half": 58.3}, {"substance": "attB G+16A, 72 bp fragment", "K half": 53.3}, {"substance": "attB G-16T, 72 bp fragment", "K half": 66}, {"substance": "attB G-16T:G+16A, 72 bp fragment", "K half": 61.3}, {"substance": "attB T-15C, 72 bp fragment", "K half": 68.3}, {"substance": "attB wt, 72 bp fragment", "K half": 61.3}]}]}
